Assay results from paper PMC6139572.

What was measured:
[1] = target: isolated native thin filaments (UniProt P68032); experiment: co-sedimentation; high-velocity co-sedimentation of C1mC2 constructs with isolated native thin filaments; performed as described in ref. 15
[2] = target: myosin S2Δ, the first 126 amino acids of myosin sub-fragment 2 (rat heart) (rat); experiment: MST; as a2 (pH 7, 50 mmol/liter KCl); 25 °C
[3] = target: isolated native thin filaments (UniProt P68032)
[4] = target: myosin S2Δ, the first 126 amino acids of myosin sub-fragment 2 (rat heart) (rat); experiment: MST; as a2 but 180 mmol/liter KCl; pH 7; 30 °C
[5] = target: myosin S2Δ, the first 126 amino acids of myosin sub-fragment 2 (rat heart) (rat); experiment: MST; as a2 (pH 7, 50 mmol/liter KCl); 30 °C
[6] = target: myosin S2Δ, the first 126 amino acids of myosin sub-fragment 2 (rat heart) (rat); experiment: MST; Monolith NT.115; 100 nmol/liter Alexa 647–myosin S2Δ fixed, cMyBP-C construct titrated; 20 mmol/liter MOPS pH 7, 1 mmol/liter EDTA, 50 mmol/liter KCl, 1 mmol/liter DTT, 0.05% Tween 20; 21 °C
[7] = target: myosin S2Δ, the first 126 amino acids of myosin sub-fragment 2 (rat heart) (rat); experiment: MST; as a2 (pH 7, 50 mmol/liter KCl); biphasic binding curve of Fig. S3, the temperature of the curve is not given

Row | Kd [1] | Kd [2] | isometric force of demembranated rat ventricular trabeculae in relaxing solution (pCa 9) with 40 μmol/liter C1mC2, as percent of that during full Ca2+ activation [3] | Kd [4] | Kd [5] | Kd [6] | Kd of the additional low-affinity binding interaction [7] | Substance
1 | 57 µM |  |  |  |  |  |  | PKA tris-phosphorylated C1mC2 of rat cardiac myosin-binding protein-C (domain or fragment)
2 | 23 µM | 58.5 µM | 57% | 364 µM | 21.3 µM | 106 µM | 400 µM | C1mC2, unphosphorylated N-terminal fragment of rat cardiac myosin-binding protein-C containing the Ig-domains C1 and C2 and the intervening m-domain (domain or fragment)
